Results taken from patent US20090258001A1.

Legend:
[1] = molecular target: CD3 (CD3/TCR complex) on CD4+ and CD8+ T cells of patients (human) (UniProt P07766); test: flow cytometry of CD4+ T cells, free CD3 sites by biotinylated TRX4; Example 4 Cohort B, 2 hours after last infusion
[2] = molecular target: CD3 (CD3/TCR complex) on CD4+ and CD8+ T cells of patients (human) (UniProt P07766); test: flow cytometry of CD4+ T cells, anti-human IgG; Example 4 Cohort A, end of 0.1 mg infusion
[3] = molecular target: CD3 (CD3/TCR complex) on CD4+ and CD8+ T cells of patients (human) (UniProt P07766); test: flow cytometry of CD4+ T cells, free CD3 sites by biotinylated TRX4; Example 3 Cohort 3, 0.5 mg, end of infusion
[4] = molecular target: CD3 (CD3/TCR complex) on CD4+ and CD8+ T cells of patients (human) (UniProt P07766); test: flow cytometry of CD4+ T cells, anti-human IgG; Example 3 Cohort 2 (0.5 mg x3), 2 hours after end of dosing
[5] = molecular target: CD3 (CD3/TCR complex) on CD4+ and CD8+ T cells of patients (human) (UniProt P07766); test: flow cytometry of CD4+ T cells, anti-human IgG; Example 4 Cohort B, end of 0.1 mg infusion
[6] = molecular target: CD3 (CD3/TCR complex) on CD4+ and CD8+ T cells of patients (human) (UniProt P07766); test: flow cytometry of CD4+ T cells, free CD3 sites by biotinylated TRX4; Example 3 Cohort 2, third 0.5 mg dose
[7] = molecular target: CD3 (CD3/TCR complex) on CD4+ and CD8+ T cells of patients (human) (UniProt P07766); test: flow cytometry of patients' CD4+ T cells, anti-human IgG; Example 3 Cohort 1 (0.1 mg x3), end of second infusion
[8] = molecular target: CD3 (CD3/TCR complex) on CD4+ and CD8+ T cells of patients (human) (UniProt P07766); test: flow cytometry of CD4+ T cells, free CD3 sites by biotinylated TRX4; Example 4 Cohort C, 2 hours after last infusion
[9] = molecular target: CD3 (CD3/TCR complex) on CD4+ and CD8+ T cells of patients (human) (UniProt P07766); test: flow cytometry of CD4+ T cells, free CD3 sites by biotinylated TRX4; Example 3 Cohort 1, end of first 0.1 mg infusion
[10] = molecular target: CD3 (CD3/TCR complex) on CD4+ and CD8+ T cells of patients (human) (UniProt P07766); test: flow cytometry of CD4+ T cells, free CD3 sites by biotinylated TRX4; Example 4 Cohort C, 0.3 mg
[11] = molecular target: CD3 (CD3/TCR complex) on CD4+ and CD8+ T cells of patients (human) (UniProt P07766); test: flow cytometry of CD4+ T cells, anti-human IgG; Example 4 Cohort A*, end of 0.25 mg infusion
[12] = molecular target: CD3 (CD3/TCR complex) on CD4+ and CD8+ T cells of patients (human) (UniProt P07766); test: flow cytometry of CD4+ T cells, anti-human IgG; Example 4 Cohort C, end of 0.1 mg infusion
[13] = molecular target: CD3 (CD3/TCR complex) on CD4+ and CD8+ T cells of patients (human) (UniProt P07766); test: flow cytometry of CD4+ T cells, anti-human IgG; Example 4 Cohort C, 2 hours after 1.0 mg infusion
[14] = molecular target: CD3 (CD3/TCR complex) on CD4+ and CD8+ T cells of patients (human) (UniProt P07766); test: flow cytometry of CD4+ T cells, free CD3 sites by biotinylated TRX4; Example 3 Cohort 3, 2 hours after 0.5 mg infusion
[15] = molecular target: CD3 (CD3/TCR complex) on CD4+ and CD8+ T cells of patients (human) (UniProt P07766); test: flow cytometry of CD4+ T cells, free CD3 sites by biotinylated TRX4; Example 3 Cohort 2, first 0.5 mg dose
[16] = molecular target: CD3 (CD3/TCR complex) on CD4+ and CD8+ T cells of patients (human) (UniProt P07766); test: flow cytometry of CD4+ T cells, anti-human IgG; Example 4 Cohort B, 2 hours after 0.75 mg infusion
[17] = molecular target: CD3 (CD3/TCR complex) on CD4+ and CD8+ T cells of patients (human) (UniProt P07766); test: flow cytometry of CD4+ T cells, free CD3 sites by biotinylated TRX4; Example 4 Cohort A, 2 hours after last infusion
[18] = molecular target: CD3 (CD3/TCR complex) on CD4+ and CD8+ T cells of patients (human) (UniProt P07766); test: flow cytometry of CD4+ T cells, anti-human IgG; Example 3 Cohort 3, end of 0.5 mg infusion
[19] = molecular target: CD3 (CD3/TCR complex) on CD4+ and CD8+ T cells of patients (human) (UniProt P07766); test: flow cytometry of CD4+ T cells, anti-human IgG; Example 4 Cohort A*, end of 0.05 mg infusion
[20] = molecular target: CD3 (CD3/TCR complex) on CD4+ and CD8+ T cells of patients (human) (UniProt P07766); test: flow cytometry of CD4+ T cells, anti-human IgG; Example 4 Cohort B, about 24 hours after 0.75 mg infusion
[21] = molecular target: CD3 (CD3/TCR complex) on CD4+ and CD8+ T cells of patients (human) (UniProt P07766); test: flow cytometry of CD4+ T cells, free CD3 sites by biotinylated TRX4; Example 4 Cohort A*, 0.25 mg
[22] = molecular target: CD3 (CD3/TCR complex) on CD4+ and CD8+ T cells of patients (human) (UniProt P07766); test: flow cytometry of CD4+ T cells, free CD3 sites by biotinylated TRX4; Example 4 Cohort B, 0.3 mg
[23] = molecular target: CD3 (CD3/TCR complex) on CD4+ and CD8+ T cells of patients (human) (UniProt P07766); test: flow cytometry of CD4+ T cells, free CD3 sites by biotinylated TRX4; Example 4 Cohort A, 0.5 mg
[24] = molecular target: CD3 (CD3/TCR complex) on CD4+ and CD8+ T cells of patients (human) (UniProt P07766); test: flow cytometry of CD4+ T cells, free CD3 sites by biotinylated TRX4; Example 4 Cohort B, Day 5

Sequence of UniProt P07766 (P07766 23-207, chain 1 of 3): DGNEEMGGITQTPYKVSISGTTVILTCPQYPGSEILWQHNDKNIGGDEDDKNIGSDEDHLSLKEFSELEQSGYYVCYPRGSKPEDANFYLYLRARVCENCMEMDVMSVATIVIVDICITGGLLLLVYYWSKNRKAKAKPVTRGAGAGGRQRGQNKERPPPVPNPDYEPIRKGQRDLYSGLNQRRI
Sequence of UniProt P07766 (chain, as listed by the source, chain 2 of 3): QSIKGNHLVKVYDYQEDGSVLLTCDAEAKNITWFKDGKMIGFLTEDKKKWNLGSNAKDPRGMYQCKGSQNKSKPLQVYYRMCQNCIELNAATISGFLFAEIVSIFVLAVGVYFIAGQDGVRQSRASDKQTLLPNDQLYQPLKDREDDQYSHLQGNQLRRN
Sequence of UniProt P07766 (chain, as listed by the source, chain 3 of 3): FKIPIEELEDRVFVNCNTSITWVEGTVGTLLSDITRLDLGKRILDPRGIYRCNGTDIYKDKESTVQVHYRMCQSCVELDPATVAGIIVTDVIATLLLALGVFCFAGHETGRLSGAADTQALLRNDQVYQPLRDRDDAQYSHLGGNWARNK

TRX4 antibody
percent saturation of CD3 [1]: 70%
cell-bound TRX4 (MESF of anti-human IgG) [2]: 200000 MESF units
percent saturation of CD3 [3]: 90%
cell-bound TRX4 (MESF of anti-human IgG) [4]: 400000 MESF units
cell-bound TRX4 (MESF of anti-human IgG) [5]: 2e+06 MESF units
percent saturation of CD3 [6]: 95%
cell-bound TRX4 (MESF of anti-human IgG) [7]: 300000 MESF units
percent saturation of CD3 [8]: 50%
percent saturation of CD3 [9]: 37%
percent saturation of CD3 [10]: 99%
cell-bound TRX4 (MESF of anti-human IgG) [11]: 80000 MESF units
cell-bound TRX4 (MESF of anti-human IgG) [12]: 800000 MESF units
cell-bound TRX4 (MESF of anti-human IgG) [13]: 600000 MESF units
percent saturation of CD3 [14]: 45%
percent saturation of CD3 [15]: 90%
cell-bound TRX4 (MESF of anti-human IgG) [16]: 550000 MESF units
percent saturation of CD3 [17]: 60%
cell-bound TRX4 (MESF of anti-human IgG) [18]: 800000 MESF units
cell-bound TRX4 (MESF of anti-human IgG) [19]: 300000 MESF units
cell-bound TRX4 (MESF of anti-human IgG) [20]: 200000 MESF units
percent saturation of CD3 [21]: 95%
percent saturation of CD3 [22]: 80%
percent saturation of CD3 [23]: 95%
percent saturation of CD3 [24]: 40%
